Reference: publication PMC10127746, “Genetic Dissection of Budding Yeast PCNA Mutations Responsible for the Regulated Recruitment of Srs2 Helicase” (mBio, 2023)

Assays:
Assay in all cases: pull-down; GST pulldown; equal molars of GST-Srs2-CT or GST-Rad30-PIP and His6-Pol30 coincubated overnight at 4°C; Western blot with anti-His6 and anti-GST
Settings in all cases: both partners purified
[1] = target: T1, His6-tagged Pol30 (S. cerevisiae, UniProt P15873 1-258)
T1 construct: Pol30 (PCNA), S. cerevisiae, POL30 ORF cloned into BamHI-SacI sites of pET30a; also called His6-Pol30; PCNA; source: E. coli BL21, purified (Ni Sepharose)
T1 sequence (looked up): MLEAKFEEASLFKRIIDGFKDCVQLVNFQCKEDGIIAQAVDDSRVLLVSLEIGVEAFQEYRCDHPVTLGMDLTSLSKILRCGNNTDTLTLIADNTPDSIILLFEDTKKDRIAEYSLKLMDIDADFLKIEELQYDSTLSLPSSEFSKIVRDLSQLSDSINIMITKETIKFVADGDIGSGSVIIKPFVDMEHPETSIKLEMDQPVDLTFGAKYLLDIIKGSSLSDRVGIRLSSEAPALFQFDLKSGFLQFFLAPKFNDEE

[2] = target: T2, His6-tagged Pol30-A171D (S. cerevisiae, UniProt P15873 1-258, A171D)
T2 construct: Pol30 (PCNA), S. cerevisiae, POL30 ORF in pET30a, mutant derivative; The methods describe only the wild-type pET-Pol30; source: E. coli BL21, purified (Ni Sepharose)
T2 sequence (looked up): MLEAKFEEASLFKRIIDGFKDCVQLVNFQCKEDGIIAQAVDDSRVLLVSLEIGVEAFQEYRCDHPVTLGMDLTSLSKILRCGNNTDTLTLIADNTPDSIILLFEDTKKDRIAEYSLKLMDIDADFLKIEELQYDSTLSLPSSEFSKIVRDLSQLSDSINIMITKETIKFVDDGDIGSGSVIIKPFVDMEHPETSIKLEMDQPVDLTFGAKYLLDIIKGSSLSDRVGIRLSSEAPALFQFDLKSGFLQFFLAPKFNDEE

[3] = target: T3, His6-tagged Pol30-K164R (S. cerevisiae, UniProt P15873 1-258, K164R)
T3 construct: Pol30 (PCNA), S. cerevisiae, POL30 ORF in pET30a, mutant derivative; The methods describe only the wild-type pET-Pol30; source: E. coli BL21, purified (Ni Sepharose)
T3 sequence (looked up): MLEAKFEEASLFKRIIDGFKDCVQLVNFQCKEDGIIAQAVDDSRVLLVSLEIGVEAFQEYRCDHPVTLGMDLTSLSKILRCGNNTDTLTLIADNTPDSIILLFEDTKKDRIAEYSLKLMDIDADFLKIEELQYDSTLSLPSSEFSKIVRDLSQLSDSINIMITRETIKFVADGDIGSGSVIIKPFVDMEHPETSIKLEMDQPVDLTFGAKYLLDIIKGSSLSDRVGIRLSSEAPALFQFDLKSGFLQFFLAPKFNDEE

[4] = target: T4, His6-tagged Pol30-I128A (S. cerevisiae, UniProt P15873 1-258, I128A)
T4 construct: Pol30 (PCNA), S. cerevisiae, POL30 ORF in pET30a, mutant derivative; source: E. coli BL21, purified (Ni Sepharose)
T4 sequence (looked up): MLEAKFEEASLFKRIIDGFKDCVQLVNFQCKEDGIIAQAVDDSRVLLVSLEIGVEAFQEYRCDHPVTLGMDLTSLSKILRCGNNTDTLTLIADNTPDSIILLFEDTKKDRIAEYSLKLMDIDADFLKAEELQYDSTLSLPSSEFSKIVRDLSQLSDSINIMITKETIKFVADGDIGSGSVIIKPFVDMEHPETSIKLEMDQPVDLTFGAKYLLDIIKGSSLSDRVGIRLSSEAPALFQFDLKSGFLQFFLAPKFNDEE

Measured: binding result

B1: GST-tagged Rad30-PIP (domain or fragment, S. cerevisiae, UniProt Q04049 515-632, looked up)
chain: VVDMFGNQVHTFKSSAGKEDEEKTTSSKADEKTPKLECCKYQVTFTDQKALQEHADYHLALKLSEGLNGAEESSKNLSFGEKRLLFSRKRPNSQHTATPQKKQVTSSKNILSFFTRKK
notes: Rad30 (DNA polymerase eta), S. cerevisiae, residues 515 to 632, cloned into BamHI-EcoRI sites of pGEX6; also called GST-Rad30-PIP; Rad30-PIP domain; source: E. coli BL21, purified (glutathione Sepharose)
binds: all assays above

B2: GST-tagged Srs2 C-terminal domain (Srs2-CT) (domain or fragment, S. cerevisiae, UniProt P12954 1107-1174, looked up)
chain: HNPDDTTVDNRPIISNAKFLADAAMKKTQKFSKKVKNEPASSQMDIFSQLSRAKKKSKLNNGEIIVID
notes: Srs2 DNA helicase, S. cerevisiae, residues 1107 to 1174, cloned into BamHI-EcoRI sites of pGEX6; Holds the atypical PIP box and the SIM; also called GST-Srs2-CT; Srs2 C terminus; source: E. coli BL21, purified (glutathione Sepharose)
binds: [1] | [3] | [4]
